Measured values: patent publication US20240368230, “CELL-PENETRATING PEPTIDES COMPRISING MULTIPLE 5-MER ALPHA-HELIX FRAGMENTS AND USES […]” (ArtProBio Co., Ltd., published 2024)

Target: Tat peptide (47-57) (Human immunodeficiency virus 1)
Assay: EMSA; non-cognate RNA; higher affinity than CPP11; 10 mM potassium phosphate pH 7.5, 100 mM NaCl
Conditions: protein: synthetic; tags: chemically synthesized peptide; stem-loop

B1: wild-type RRE IIB RNA (ssRNA)
RNA: GGACCUGGUAUGGGCGCAGCGCAAGCUGACGGUACAGGCCAGGUCC
binding result: binds
